These results are taken from PMC12661434.

For the assay, the target named is StayRose (His-tagged StayGold bearing 3-aminotyrosine at Y58) (Cytaeis uchidae). Nature of the assay: SEC; Superdex 75 Increase 10/300 GL, 20 mM Hepes, 150 mM NaCl, pH 7.5, 0.8 ml/min; ~1 mg/ml (38 uM) protein loaded via a 0.5 ml loop. In general terms: In gel filtration, larger molecules generally elute earlier.

In general, stoichiometry N refers to the number of molecules, sites or subunits per partner or assembly. “StayRose (His-tagged StayGold bearing 3-aminotyrosine at Y58)”: the stoichiometry N stood at 2.
